Patent publication US20110300138A1 (published 2011)
Like-named read-outs stand apart in the source and are kept apart here.

Columns and labels:
[1] = target: human TSHR (thyroid stimulating hormone receptor) expressed in transfected CHO cells (human) (UniProt P16473); assay: cell-based or functional assay
[2] = target: human TSH receptor (full length, wild type) expressed in CHO cells (human) (UniProt P16473); assay: cell-based or functional assay
[3] = target: human TSH receptor (full length, wild type) expressed in CHO cells (human) (UniProt P16473); assay: cell-based or functional assay; remark: listed apart in the source
[4] = target: human TSH receptor (full length, wild type) expressed in CHO cells (human) (UniProt P16473); assay: cell-based or functional assay; remark: listed apart in the source
[5] = target: human TSHR (wild type, full length) expressed in CHO cells (human) (UniProt P16473); assay: cell-based or functional assay
[6] = target: TSHR260-alkaline phosphatase (TSHR260-AP) (human) (UniProt P05187); assay: TSHR260-AP bridge ELISA, full length TSHR on wells; 1 µg/mL, diluted in HBD
[7] = target: TSHR260-alkaline phosphatase (TSHR260-AP) (human) (UniProt P05187); assay: TSHR260-AP bridge ELISA, full length TSHR on wells; 10 µg/mL, diluted in HBD
[8] = target: TSHR260-alkaline phosphatase (TSHR260-AP) (human) (UniProt P05187); assay: TSHR260-AP bridge ELISA, full length TSHR on wells; 0.1 µg/mL, diluted in HBD
[9] = target: TSHR260-alkaline phosphatase (TSHR260-AP) (human) (UniProt P05187); assay: TSHR260-AP bridge ELISA, full length TSHR on wells; 0.5 µg/mL, diluted in HBD
[10] = target: TSHR260-alkaline phosphatase (TSHR260-AP) (human) (UniProt P05187); assay: TSHR260-AP bridge ELISA, full length TSHR on wells; 250 µg/mL, diluted in HBD
[11] = target: TSHR260-alkaline phosphatase (TSHR260-AP) (human) (UniProt P05187); assay: TSHR260-AP bridge ELISA, full length TSHR on wells; 0.01 µg/mL, diluted in HBD
[12] = target: TSHR260-alkaline phosphatase (TSHR260-AP) (human) (UniProt P05187); assay: TSHR260-AP bridge ELISA, full length TSHR on wells; 1 µg/mL, diluted in assay buffer
[13] = target: TSHR260-alkaline phosphatase (TSHR260-AP) (human) (UniProt P05187); assay: TSHR260-AP bridge ELISA, full length TSHR on wells; 0.1 µg/mL, diluted in assay buffer
[14] = target: TSHR260-alkaline phosphatase (TSHR260-AP) (human) (UniProt P05187); assay: TSHR260-AP bridge ELISA, full length TSHR on wells; 250 µg/mL, diluted in assay buffer
[15] = target: TSHR260-alkaline phosphatase (TSHR260-AP) (human) (UniProt P05187); assay: TSHR260-AP bridge ELISA, full length TSHR on wells; 0.05 µg/mL, diluted in assay buffer
[16] = target: TSHR260-AP (human); assay: TSHR260-AP bridge ELISA (full length TSHR on wells, TSHR260-AP in solution); IgG 0.1 µg/mL diluted in HBD serum
[17] = target: TSHR260-AP (human); assay: TSHR260-AP bridge ELISA (full length TSHR on wells, TSHR260-AP in solution); IgG 100 µg/mL diluted in HBD serum
[18] = target: TSHR260-AP (human); assay: TSHR260-AP bridge ELISA (full length TSHR on wells, TSHR260-AP in solution); IgG 0.01 µg/mL diluted in HBD serum
[19] = target: TSHR260-AP (human); assay: TSHR260-AP bridge ELISA (full length TSHR on wells, TSHR260-AP in solution); IgG 0.05 µg/mL diluted in HBD serum
[20] = target: TSHR260-AP (human); assay: TSHR260-AP bridge ELISA (full length TSHR on wells, TSHR260-AP in solution); IgG 1 µg/mL diluted in assay buffer
[21] = target: TSHR260-AP (human); assay: TSHR260-AP bridge ELISA (full length TSHR on wells, TSHR260-AP in solution); IgG 0.005 µg/mL diluted in HBD serum
[22] = target: TSHR260-AP (human); assay: TSHR260-AP bridge ELISA (full length TSHR on wells, TSHR260-AP in solution); IgG 10 µg/mL diluted in assay buffer
[23] = target: TSHR260-AP (human); assay: TSHR260-AP bridge ELISA (full length TSHR on wells, TSHR260-AP in solution); IgG 0.5 µg/mL diluted in assay buffer
[24] = target: TSHR260-AP (human); assay: TSHR260-AP bridge ELISA (full length TSHR on wells, TSHR260-AP in solution); IgG 250 µg/mL diluted in assay buffer
[25] = target: TSHR260-AP (human); assay: TSHR260-AP bridge ELISA (full length TSHR on wells, TSHR260-AP in solution); IgG 0.01 µg/mL diluted in assay buffer

Sequence of M22 IgG (antibody) (VH): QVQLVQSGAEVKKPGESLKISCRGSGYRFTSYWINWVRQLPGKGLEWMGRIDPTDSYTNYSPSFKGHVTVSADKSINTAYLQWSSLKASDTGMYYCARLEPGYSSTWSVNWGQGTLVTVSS
Sequence of M22 IgG (antibody) (V domain): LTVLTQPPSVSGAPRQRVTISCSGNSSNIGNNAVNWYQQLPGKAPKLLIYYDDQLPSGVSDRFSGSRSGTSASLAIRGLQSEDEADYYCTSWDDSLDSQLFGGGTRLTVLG

5B3 IgG (antibody)
Cyclic AMP concentration; 3 ng/mL M22 IgG + 10 µg/mL 5B3 IgG [1]: 21.6 pmol/mL
Cyclic AMP concentration; 3 ng/mL M22 IgG + 100 µg/mL 5B3 IgG [1]: 28.1 pmol/mL
Cyclic AMP concentration; 100 µg/mL 5B3 IgG [1]: 1.1 pmol/mL
% Inhibition; T4 serum + 100 µg/mL 5B3 IgG [2]: 30.3%
% Inhibition; T5 serum + 100 µg/mL 5B3 IgG [2]: 0%
% Inhibition; T6 serum + 100 µg/mL 5B3 IgG [2]: 1.8%
Cyclic AMP concentration; 100 µg/mL 5B3 IgG alone [2]: 2.6 pmol/mL
Cyclic AMP concentration; HBD + 100 µg/mL 5B3 IgG [2]: 3 pmol/mL
Cyclic AMP concentration; T4 serum + 100 µg/mL 5B3 IgG [2]: 55 pmol/mL
Cyclic AMP concentration; T5 serum + 100 µg/mL 5B3 IgG [2]: 66.7 pmol/mL
Cyclic AMP concentration; T6 serum + 100 µg/mL 5B3 IgG [2]: 81.5 pmol/mL
% Inhibition; T7 serum + 100 µg/mL 5B3 IgG [3]: 0%
% Inhibition; T8 serum + 100 µg/mL 5B3 IgG [3]: 10.9%
% Inhibition; T9 serum + 100 µg/mL 5B3 IgG [3]: 0%
Cyclic AMP concentration; 100 µg/mL 5B3 IgG alone [3]: 2.7 pmol/mL
Cyclic AMP concentration; HBD + 100 µg/mL 5B3 IgG [3]: 4 pmol/mL
Cyclic AMP concentration; T7 serum + 100 µg/mL 5B3 IgG [3]: 91.9 pmol/mL
Cyclic AMP concentration; T8 serum + 100 µg/mL 5B3 IgG [3]: 76.3 pmol/mL
Cyclic AMP concentration; T9 serum + 100 µg/mL 5B3 IgG [3]: 53.2 pmol/mL
% Inhibition; T10 serum + 100 µg/mL 5B3 IgG [4]: 0%
% Inhibition; T11 serum + 100 µg/mL 5B3 IgG [4]: 3.2%
% Inhibition; T12 serum + 100 µg/mL 5B3 IgG [4]: 0%
Cyclic AMP concentration; 100 µg/mL 5B3 IgG alone [4]: 2 pmol/mL
Cyclic AMP concentration; HBD + 100 µg/mL 5B3 IgG [4]: 2.4 pmol/mL
Cyclic AMP concentration; T10 serum + 100 µg/mL 5B3 IgG [4]: 59.3 pmol/mL
Cyclic AMP concentration; T11 serum + 100 µg/mL 5B3 IgG [4]: 39.7 pmol/mL
Cyclic AMP concentration; T12 serum + 100 µg/mL 5B3 IgG [4]: 43.3 pmol/mL
% Inhibition of T13 serum stimulation; 100 µg/mL 5B3 IgG [5]: 22.5%
% Inhibition of T14 serum stimulation; 100 µg/mL 5B3 IgG [5]: 24.6%
% Inhibition of T15 serum stimulation; 100 µg/mL 5B3 IgG [5]: 18.3%
Cyclic AMP concentration; 100 µg/mL 5B3 IgG alone [5]: 4.1 pmol/mL
Cyclic AMP concentration; HBD + 100 µg/mL 5B3 IgG [5]: 5.1 pmol/mL
Cyclic AMP concentration; T13 serum + 100 µg/mL 5B3 IgG [5]: 37.6 pmol/mL
Cyclic AMP concentration; T14 serum + 100 µg/mL 5B3 IgG [5]: 20.5 pmol/mL
Cyclic AMP concentration; T15 serum + 100 µg/mL 5B3 IgG [5]: 41.9 pmol/mL
Mean absorbance at 405 nm (absorbance at 405 nm) [6]: 0.049
Mean absorbance at 405 nm (absorbance at 405 nm) [7]: -0.006
Mean absorbance at 405 nm (absorbance at 405 nm) [8]: -0.002
Mean absorbance at 405 nm (absorbance at 405 nm) [9]: -0.001
Mean absorbance at 405 nm (absorbance at 405 nm) [10]: 0.012
Mean absorbance at 405 nm (absorbance at 405 nm) [11]: 0.027
Mean absorbance at 405 nm (absorbance at 405 nm) [12]: -0.004
Mean absorbance at 405 nm (absorbance at 405 nm) [13]: -0.013
Mean absorbance at 405 nm (absorbance at 405 nm) [14]: 0.018
Mean absorbance at 405 nm (absorbance at 405 nm) [15]: -0.009
Mean absorbance at 405 nm (absorbance at 405 nm) [16]: -0.002
Mean absorbance at 405 nm (absorbance at 405 nm) [17]: 0.003
Mean absorbance at 405 nm (absorbance at 405 nm) [18]: 0.027
Mean absorbance at 405 nm (absorbance at 405 nm) [19]: -0.006
Mean absorbance at 405 nm (absorbance at 405 nm) [20]: -0.004
Mean absorbance at 405 nm (absorbance at 405 nm) [21]: -0.002
Mean absorbance at 405 nm (absorbance at 405 nm) [22]: -0.014
Mean absorbance at 405 nm (absorbance at 405 nm) [23]: -0.006
Mean absorbance at 405 nm (absorbance at 405 nm) [24]: 0.018
Mean absorbance at 405 nm (absorbance at 405 nm) [25]: 0.012

M22 IgG (antibody)
Cyclic AMP concentration; 3 ng/mL M22 IgG [1]: 21.3 pmol/mL
Mean absorbance at 405 nm (absorbance at 405 nm) [6]: 0.726
Mean absorbance at 405 nm (absorbance at 405 nm) [7]: 0.796
Mean absorbance at 405 nm (absorbance at 405 nm) [8]: 0.365
Mean absorbance at 405 nm (absorbance at 405 nm) [9]: 0.657
Mean absorbance at 405 nm (absorbance at 405 nm) [10]: 0.833
Mean absorbance at 405 nm (absorbance at 405 nm) [11]: 0.03
Mean absorbance at 405 nm (absorbance at 405 nm) [12]: 0.821
Mean absorbance at 405 nm (absorbance at 405 nm) [13]: 0.653
Mean absorbance at 405 nm (absorbance at 405 nm) [14]: 1.01
Mean absorbance at 405 nm (absorbance at 405 nm) [15]: 0.484
Mean absorbance at 405 nm (absorbance at 405 nm) [16]: 0.365
Mean absorbance at 405 nm (absorbance at 405 nm) [17]: 0.851
Mean absorbance at 405 nm (absorbance at 405 nm) [18]: 0.03
Mean absorbance at 405 nm (absorbance at 405 nm) [19]: 0.204
Mean absorbance at 405 nm (absorbance at 405 nm) [20]: 0.821
Mean absorbance at 405 nm (absorbance at 405 nm) [21]: 0.045
Mean absorbance at 405 nm (absorbance at 405 nm) [22]: 0.872
Mean absorbance at 405 nm (absorbance at 405 nm) [23]: 0.776
Mean absorbance at 405 nm (absorbance at 405 nm) [24]: 1.01
Mean absorbance at 405 nm (absorbance at 405 nm) [25]: 0.101
